Test results taken from PMC4622073 (mAbs, 2014).

Tests used:
[1] = target: T1, biotinylated mST2-Fc fusion protein (mouse, UniProt P14719 27-332, biotin (site not stated)); assay: AlphaScreen or HTRF
T1 sequence: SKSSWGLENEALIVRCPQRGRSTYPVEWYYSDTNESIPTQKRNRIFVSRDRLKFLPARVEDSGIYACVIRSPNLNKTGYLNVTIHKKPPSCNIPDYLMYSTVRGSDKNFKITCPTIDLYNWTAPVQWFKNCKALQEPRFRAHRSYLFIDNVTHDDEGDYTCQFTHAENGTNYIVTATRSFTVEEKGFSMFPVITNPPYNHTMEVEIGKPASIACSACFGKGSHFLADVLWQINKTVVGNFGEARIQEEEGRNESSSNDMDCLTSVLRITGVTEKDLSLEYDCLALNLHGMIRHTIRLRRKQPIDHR

[2] = target: T2, mST2-Fc fusion protein (unlabelled) (mouse, UniProt P14719 27-332); assay: AlphaScreen or HTRF
T2 sequence: T1 sequence

B1: mouse interleukin-33 (mIL-33), amino acids 97-266, FLAG 10His tagged (ligand)
chain: SIQAFAASVDTLSIQGTSLLTQSPASLSTYNDQSVSFVLENGCYVINVDDSGKDQEQDQVLLRYYESPCPASQSGDGVDGKKLMVNMSPIKDTDIWLHANDKDYSVELQRGDVSPPEQAFFVLHKKSSDFVSFECKNLPGTYIGVKDNQLALVEEKDESCNNIMFKLSKI
Q: Which results are given for B1?
A: binding result [1]: binds; binding result [2]: binds
